Publication PMC2597217

What was measured:
FoxO1 DBD S249E = FoxO1 DBD S249E (human, UniProt Q12778 151-266, S249E); assay: EMSA
FoxO1 DBD A207C = FoxO1 DBD A207C (human, UniProt Q12778 151-266, A207C); assay: crystal structure
FoxO1 DBD S184C = FoxO1 DBD S184C (human, UniProt Q12778 151-266, S184C); assay: crystal structure
Sequence of FoxO1 DBD S184C (Q12778 151-266 S184C): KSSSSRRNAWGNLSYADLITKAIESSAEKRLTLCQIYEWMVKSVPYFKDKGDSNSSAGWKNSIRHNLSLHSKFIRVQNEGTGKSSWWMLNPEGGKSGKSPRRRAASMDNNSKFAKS

Sequence of FoxO1 DBD S249E (Q12778 151-266 S249E): as the sequence (Q12778 151-266 S184C) above, with C34S, S99E counted along it
Sequence of FoxO1 DBD A207C (Q12778 151-266 A207C): as the sequence (Q12778 151-266 S184C) above, with C34S, A57C counted along it

Binder	binding result (FoxO1 DBD S249E)	binding result (FoxO1 DBD A207C)	binding result (FoxO1 DBD S184C)
DBE2 (dsDNA) DNA 1: TCTTGTTTACATTTTG DNA 2: CAAAATGTAAACAAGA	binds		
IRE (dsDNA) DNA 1: TGGTTTGTTTTGCTTG DNA 2: CAAGCAAAACAAACCA	binds	binds	binds
